Target: the molecule itself
Assay: crystal structure; Se-Met Spr0693_(59–324) T197M/I317M, hanging drop at 12 °C, sodium acetate pH 4.5; SAD, 3.0 Å; three molecules in the asymmetric unit

B1: Spr0693_(59–324) T197M/I317M, selenomethionine-labelled (domain or fragment, Streptococcus pneumoniae R6, UniProt Q8DQF9 59-324, looked up)
chain: SVLLSGTVTAKNEQYVYFDASKGDLDEILVSVGDKVSEGQALVKYSSSEAQAAYDSASRAVARADRHINELNQARNEAASAPAPQLPAPVGGEDATVQSPTPVAGNSVASIDAQLGDARDARADAAAQLSKAQSQLDAMTVLSTLEGTVVEVNSNVSKSPTGASQVMVHIVSNENLQVKGELSEYNLANLSVGQEVSFTSKVYPDKKWTGKLSYISDYPKNNGEAASPAAGNNTGSKYPYTIDVTGEVGDLKQGFSVNMEVKSKTK
modifications: selenomethionine instead of methionine
notes: Spr0693, Streptococcus pneumoniae R6, residues Ser59–Lys324 (without the TM and the membrane-proximal domain); Plasmid built on the full-length spr0693 plasmid (C-terminal tag) and purified on Ni-NTA; The structure was solved from a Se-Met crystal of the T197M/I317M double mutant; residues Pro142–Gly163 are not traced; also called truncated Spr0693 (Ser59–Lys324); TM&MP-truncated Spr0693; source: …
  stoichiometry N: 6

— article PMC5768738, “Structure of a MacAB-like efflux pump from Streptococcus pneumoniae” (Nature Communications, 2018)
